Patent publication US9309320

Target: murine CD95L, endogenous in SMA-560 tumor explants (murine) (UniProt P41047)
Assay: cell-based or functional assay

Chain of UniProt P41047 (P41047 whole entry): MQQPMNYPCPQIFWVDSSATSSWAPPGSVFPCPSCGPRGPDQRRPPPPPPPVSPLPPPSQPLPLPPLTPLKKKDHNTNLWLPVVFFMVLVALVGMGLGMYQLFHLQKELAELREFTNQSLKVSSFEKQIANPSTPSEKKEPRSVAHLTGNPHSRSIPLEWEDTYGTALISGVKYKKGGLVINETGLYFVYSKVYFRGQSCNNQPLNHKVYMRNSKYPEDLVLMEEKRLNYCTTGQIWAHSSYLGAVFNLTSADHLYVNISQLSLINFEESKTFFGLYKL

decrease in migration of cells out of SMA-560 tumor explants into collagen: 50%
Substance: MFL3, anti murine-CD95L neutralizing antibody
